The values that follow are results of earlier work, collected in article PMC3667765.

The target in the data set is E-cadherin (Homo sapiens) (UniProt P12830).
Sequence of UniProt P12830 (P12830 155-709): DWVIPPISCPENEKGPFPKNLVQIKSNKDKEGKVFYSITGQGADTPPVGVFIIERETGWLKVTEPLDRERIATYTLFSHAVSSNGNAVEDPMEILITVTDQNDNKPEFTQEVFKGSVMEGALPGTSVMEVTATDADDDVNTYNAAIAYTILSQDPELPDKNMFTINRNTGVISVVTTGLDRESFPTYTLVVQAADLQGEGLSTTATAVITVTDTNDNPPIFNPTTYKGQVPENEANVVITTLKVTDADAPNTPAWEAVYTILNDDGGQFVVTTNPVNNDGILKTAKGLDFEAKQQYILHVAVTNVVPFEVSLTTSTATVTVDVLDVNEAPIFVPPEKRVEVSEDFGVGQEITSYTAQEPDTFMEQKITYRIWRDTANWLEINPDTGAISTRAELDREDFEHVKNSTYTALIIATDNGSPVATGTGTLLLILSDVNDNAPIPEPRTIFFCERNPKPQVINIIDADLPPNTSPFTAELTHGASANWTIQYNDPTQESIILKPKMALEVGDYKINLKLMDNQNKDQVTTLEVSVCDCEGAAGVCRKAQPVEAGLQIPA

As for Internalin A (from UniProt P0DJM0), the Kd (commonly the equilibrium constant for the complex coming apart) was 8 µM.
